One block for each molecule: values may come before it.
Experiments:
3×MBT domain of L3MBTL1 = assay: Triple SILAC pull-down, 3xMBT/3xMBTD355N ratio (cytoplasmic, nuclear and chromatin fractions of 293T cells); assay type: binding, human; conditions: SILAC ratio, pull-down 3xMBT vs 3xMBTD355N; for 3xMBT/D355N UNC Heavy: experiment with UNC0638 in heavy SILAC media; for 3xMBT/D355N UNC Light: experiment with UNC0638 in light SILAC media;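 for all read-outs here: proteins quantified with MaxQuant, requiring at least two unique peptides and quantification in both label directions, normalized to the mean of proteins from a digested loading control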
G9a and GLP = biological target: T1, G9a and GLP (Homo sapiens, UniProt Q96KQ7+Q9H9B1); assay: Triple SILAC pull-down after UNC0638 treatment of 293T cells, DMSO/UNC0638 ratio of protein captured by 3×MBT; assay type: cell-based; set-up: cells were treated for 24 hours with UNC0638 at 2.5 μM or DMSO vehicle control; endogenous in cells; host or cells: HEK 293T; conditions: for Relative to UNC0638 UNC Heavy / Relative to UNC0638 UNC Light: SILAC ratio DMSO/UNC0638 of protein pulled down with 3xMBT; for Relative to UNC0638 UNC Heavy: UNC0638 in heavy SILAC media; for Relative to UNC0638 UNC Light: UNC0638 in light SILAC media; for Relative to UNC0638 Average: average of UNC Light and UNC Heavy experiments;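 for all read-outs here: mass spectrometry (Q-Exactive) SILAC quantitation, DMSO/UNC0638 ratio computed after subtracting 3×MBTD355N mutant pull-down background, only proteins with at least twofold 3×MBT over mutant signal considered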
T1 sequence (Q96KQ7 2-1210 limits assumed): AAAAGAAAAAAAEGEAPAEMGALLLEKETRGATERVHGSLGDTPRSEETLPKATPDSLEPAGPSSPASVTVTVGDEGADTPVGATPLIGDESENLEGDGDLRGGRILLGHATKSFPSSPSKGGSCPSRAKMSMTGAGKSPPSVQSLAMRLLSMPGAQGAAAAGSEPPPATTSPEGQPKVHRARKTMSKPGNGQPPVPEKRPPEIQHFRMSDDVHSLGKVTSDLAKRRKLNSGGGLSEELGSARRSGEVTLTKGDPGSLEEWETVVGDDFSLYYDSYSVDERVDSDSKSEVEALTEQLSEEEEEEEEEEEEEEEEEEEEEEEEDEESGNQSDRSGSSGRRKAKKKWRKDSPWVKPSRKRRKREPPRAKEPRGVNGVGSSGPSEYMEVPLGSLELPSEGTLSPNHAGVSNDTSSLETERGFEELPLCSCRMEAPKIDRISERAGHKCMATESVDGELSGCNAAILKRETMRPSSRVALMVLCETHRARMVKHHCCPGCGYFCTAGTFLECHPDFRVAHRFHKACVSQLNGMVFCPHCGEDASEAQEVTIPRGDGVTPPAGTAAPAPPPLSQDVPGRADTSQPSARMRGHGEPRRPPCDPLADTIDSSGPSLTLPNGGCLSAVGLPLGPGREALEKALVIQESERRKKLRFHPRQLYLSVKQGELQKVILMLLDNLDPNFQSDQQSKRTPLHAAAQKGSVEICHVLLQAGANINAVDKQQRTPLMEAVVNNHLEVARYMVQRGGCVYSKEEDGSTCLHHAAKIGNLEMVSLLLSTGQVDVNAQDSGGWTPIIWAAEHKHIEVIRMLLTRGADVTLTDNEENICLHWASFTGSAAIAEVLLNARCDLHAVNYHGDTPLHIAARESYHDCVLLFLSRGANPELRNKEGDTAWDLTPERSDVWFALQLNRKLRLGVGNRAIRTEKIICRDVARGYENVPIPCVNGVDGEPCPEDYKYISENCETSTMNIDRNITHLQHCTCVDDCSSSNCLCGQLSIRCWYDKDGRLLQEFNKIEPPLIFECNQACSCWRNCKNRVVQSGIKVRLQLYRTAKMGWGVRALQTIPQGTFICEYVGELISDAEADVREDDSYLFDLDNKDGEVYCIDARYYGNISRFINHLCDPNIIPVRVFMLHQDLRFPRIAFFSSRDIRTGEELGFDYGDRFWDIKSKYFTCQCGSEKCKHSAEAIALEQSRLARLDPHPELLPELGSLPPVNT
T1 sequence (Q9H9B1 2-1298 limits assumed): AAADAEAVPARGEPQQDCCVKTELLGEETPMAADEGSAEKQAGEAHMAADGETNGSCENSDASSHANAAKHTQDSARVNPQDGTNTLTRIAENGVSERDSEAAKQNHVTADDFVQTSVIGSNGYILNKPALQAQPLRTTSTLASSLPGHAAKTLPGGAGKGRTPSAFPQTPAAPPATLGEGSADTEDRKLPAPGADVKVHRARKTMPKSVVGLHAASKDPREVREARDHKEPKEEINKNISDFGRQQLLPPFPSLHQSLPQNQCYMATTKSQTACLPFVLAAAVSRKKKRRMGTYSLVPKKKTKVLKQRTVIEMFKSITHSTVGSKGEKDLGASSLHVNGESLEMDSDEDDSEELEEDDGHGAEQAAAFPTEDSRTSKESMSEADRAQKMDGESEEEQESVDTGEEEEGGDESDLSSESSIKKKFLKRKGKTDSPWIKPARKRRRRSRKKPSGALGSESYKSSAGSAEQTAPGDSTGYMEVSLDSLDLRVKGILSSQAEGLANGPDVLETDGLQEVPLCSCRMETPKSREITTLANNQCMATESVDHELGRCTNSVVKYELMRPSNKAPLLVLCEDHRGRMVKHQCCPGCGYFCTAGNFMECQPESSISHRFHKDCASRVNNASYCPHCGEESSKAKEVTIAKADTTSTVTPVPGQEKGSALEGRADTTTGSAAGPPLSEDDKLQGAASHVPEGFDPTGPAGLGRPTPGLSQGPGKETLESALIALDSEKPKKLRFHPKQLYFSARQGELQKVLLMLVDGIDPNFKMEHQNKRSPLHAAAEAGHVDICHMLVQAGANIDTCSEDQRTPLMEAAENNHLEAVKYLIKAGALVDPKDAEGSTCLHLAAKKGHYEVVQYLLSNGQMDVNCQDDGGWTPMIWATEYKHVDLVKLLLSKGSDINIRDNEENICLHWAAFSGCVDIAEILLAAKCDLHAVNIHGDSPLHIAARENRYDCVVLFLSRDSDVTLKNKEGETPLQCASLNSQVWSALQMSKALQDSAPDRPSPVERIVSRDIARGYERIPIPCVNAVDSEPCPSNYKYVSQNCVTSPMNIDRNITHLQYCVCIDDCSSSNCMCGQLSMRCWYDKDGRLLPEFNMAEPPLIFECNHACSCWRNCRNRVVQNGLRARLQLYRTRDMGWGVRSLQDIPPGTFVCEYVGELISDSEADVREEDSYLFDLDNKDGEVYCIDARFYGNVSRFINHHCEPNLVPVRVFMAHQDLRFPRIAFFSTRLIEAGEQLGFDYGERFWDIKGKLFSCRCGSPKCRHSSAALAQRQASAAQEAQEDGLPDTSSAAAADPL

B1: HNRNPA3 (protein, UniProt P51991 1-378, looked up)
Heterogeneous nuclear …: MEVKPPPGRPQPDSGRRRRRRGEEGHDPKEPEQLRKLFIGGLSFETTDDSLREHFEKWGTLTDCVVMRDPQTKRSRGFGFVTYSCVEEVDAAMCARPHKVDGRVVEPKRAVSREDSVKPGAHLTVKKIFVGGIKEDTEEYNLRDYFEKYGKIETIEVMEDRQSGKKRGFAFVTFDDHDTVDKIVVQKYHTINGHNCEVKKALSKQEMQSAGSQRGRGGGSGNFMGRGGNFGGGGGNFGRGGNFGGRGGYGGGGGGSRGSYGGGDGGYNGFGGDGGNYGGGPGYSSRGGYGGGGPGYGNQGGGYGGGGGYDGYNEGGNFGGGNYGGGGNYNDFGNYSGQQQSNYGPMKGGSFGGRSSGSPYGGGYGSGGGSGGYGSRRF
3xMBT/D355N UNC Heavy (3×MBT domain of L3MBTL1): 2.96 log base 2 | 3xMBT/D355N UNC Light (3×MBT domain of L3MBTL1): 3.79 log base 2 | Relative to UNC0638 UNC Heavy (G9a and GLP): 0.20 log base 2 | Relative to UNC0638 UNC Light (G9a and GLP): 0.16 log base 2 | Relative to UNC0638 Average (G9a and GLP): 0.18 log base 2

B2: C20orf43 (protein, UniProt Q9BY42 1-306, looked up)
Replication termination …: MGCDGGTIPKRHELVKGPKKVEKVDKDAELVAQWNYCTLSQEILRRPIVACELGRLYNKDAVIEFLLDKSAEKALGKAASHIKSIKNVTELKLSDNPAWEGDKGNTKGDKHDDLQRARFICPVVGLEMNGRHRFCFLRCCGCVFSERALKEIKAEVCHTCGAAFQEDDVIMLNGTKEDVDVLKTRMEERRLRAKLEKKTKKPKAAESVSKPDVSEEAPGPSKVKTGKPEEASLDSREKKTNLAPKSTAMNESSSGKAGKPPCGATKRSIADSEESEAYKSLFTTHSSAKRSKEESAHWVTHTSYCF
3xMBT/D355N UNC Heavy (3×MBT domain of L3MBTL1): 1.26 log base 2 | 3xMBT/D355N UNC Light (3×MBT domain of L3MBTL1): 0.71 log base 2 | Relative to UNC0638 UNC Heavy (G9a and GLP): 2.48 log base 2 | Relative to UNC0638 UNC Light (G9a and GLP): −0.46 log base 2 | Relative to UNC0638 Average (G9a and GLP): 1.01 log base 2

B3: HNRNPA2B1 (protein, UniProt P22626 1-353, looked up)
Heterogeneous nuclear …: MEKTLETVPLERKKREKEQFRKLFIGGLSFETTEESLRNYYEQWGKLTDCVVMRDPASKRSRGFGFVTFSSMAEVDAAMAARPHSIDGRVVEPKRAVAREESGKPGAHVTVKKLFVGGIKEDTEEHHLRDYFEEYGKIDTIEIITDRQSGKKRGFGFVTFDDHDPVDKIVLQKYHTINGHNAEVRKALSRQEMQEVQSSRSGRGGNFGFGDSRGGGGNFGPGPGSNFRGGSDGYGSGRGFGDGYNGYGGGPGGGNFGGSPGYGGGRGGYGGGGPGYGNQGGGYGGGYDNYGGGNYGSGNYNDFGNYNQQPSNYGPMKSGNFGGSRNMGGPYGGGNYGPGGSGGSGGYGGRSRY
3xMBT/D355N UNC Heavy (3×MBT domain of L3MBTL1): 3.43 log base 2 | 3xMBT/D355N UNC Light (3×MBT domain of L3MBTL1): 3.97 log base 2 | Relative to UNC0638 UNC Heavy (G9a and GLP): 0.07 log base 2 | Relative to UNC0638 UNC Light (G9a and GLP): 0.28 log base 2 | Relative to UNC0638 Average (G9a and GLP): 0.18 log base 2

B5: HNRNPD (protein, UniProt Q14103 2-355, looked up)
Heterogeneous nuclear …: SEEQFGGDGAAAAATAAVGGSAGEQEGAMVAATQGAAAAAGSGAGTGGGTASGGTEGGSAESEGAKIDASKNEEDEGHSNSSPRHSEAATAQREEWKMFIGGLSWDTTKKDLKDYFSKFGEVVDCTLKLDPITGRSRGFGFVLFKESESVDKVMDQKEHKLNGKVIDPKRAKAMKTKEPVKKIFVGGLSPDTPEEKIREYFGGFGEVESIELPMDNKTNKRRGFCFITFKEEEPVKKIMEKKYHNVGLSKCEIKVAMSKEQYQQQQQWGSRGGFAGRARGRGGGPSQNWNQGYSNYWNQGYGNYGYNSQGYGGYGGYDYTGYNNYYGYGDYSNQQSGYGKVSRRGGHQNSYKPY
3xMBT/D355N UNC Heavy (3×MBT domain of L3MBTL1): 4.07 log base 2 | 3xMBT/D355N UNC Light (3×MBT domain of L3MBTL1): 4.56 log base 2 | Relative to UNC0638 UNC Heavy (G9a and GLP): 0.06 log base 2 | Relative to UNC0638 UNC Light (G9a and GLP): 0.29 log base 2 | Relative to UNC0638 Average (G9a and GLP): 0.18 log base 2

More lines, main results first:

Relative to UNC0638 UNC Heavy (G9a and GLP): 0.31 log base 2 | Relative to UNC0638 UNC Light (G9a and GLP): 0.04 log base 2 | Relative to UNC0638 Average (G9a and GLP): 0.18 log base 2
B4: SNX9 (protein, UniProt Q9Y5X1 1-595, looked up)
Sorting nexin-9: MATKARVMYDFAAEPGNNELTVNEGEIITITNPDVGGGWLEGRNIKGERGLVPTDYVEILPSDGKDQFSCGNSVADQAFLDSLSASTAQASSSAASNNHQVGSGNDPWSAWSASKSGNWESSEGWGAQPEGAGAQRNTNTPNNWDTAFGHPQAYQGPATGDDDDWDEDWDGPKSSSYFKDSESADAGGAQRGNSRASSSSMKIPLNKFPGFAKPGTEQYLLAKQLAKPKEKIPIIVGDYGPMWVYPTSTFDCVVADPRKGSKMYGLKSYIEYQLTPTNTNRSVNHRYKHFDWLYERLLVKFGSAIPIPSLPDKQVTGRFEEEFIKMRMERLQAWMTRMCRHPVISESEVFQQFLNFRDEKEWKTGKRKAERDELAGVMIFSTMEPEAPDLDLVEIEQKCEAVGKFTKAMDDGVKELLTVGQEHWKRCTGPLPKEYQKIGKALQSLATVFSSSGYQGETDLNDAITEAGKTYEEIASLVAEQPKKDLHFLMECNHEYKGFLGCFPDIIGTHKGAIEKVKESDKLVATSKITLQDKQNMVKRVSIMSYALQAEMNHFHSNRIYDYNSVIRLYLEQQVQFYETIAEKLRQALSRFPVM
3xMBT/D355N UNC Heavy (3×MBT domain of L3MBTL1): 2.60 log base 2 | 3xMBT/D355N UNC Light (3×MBT domain of L3MBTL1): 2.47 log base 2

Relative to UNC0638 UNC Heavy (G9a and GLP): 0.63 log base 2 | Relative to UNC0638 UNC Light (G9a and GLP): −0.28 log base 2 | Relative to UNC0638 Average (G9a and GLP): 0.18 log base 2
B6: PRPF4 (protein, UniProt O43172 1-522, looked up)
U4/U6 small nuclear …: MASSRASSTQATKTKAPDDLVAPVVKKPHIYYGSLEEKERERLAKGESGILGKDGLKAGIEAGNINITSGEVFEIEEHISERQAEVLAEFERRKRARQINVSTDDSEVKACLRALGEPITLFGEGPAERRERLRNILSVVGTDALKKTKKDDEKSKKSKEEYQQTWYHEGPNSLKVARLWIANYSLPRAMKRLEEARLHKEIPETTRTSQMQELHKSLRSLNNFCSQIGDDRPISYCHFSPNSKMLATACWSGLCKLWSVPDCNLLHTLRGHNTNVGAIVFHPKSTVSLDPKDVNLASCAADGSVKLWSLDSDEPVADIEGHTVRVARVMWHPSGRFLGTTCYDRSWRLWDLEAQEEILHQEGHSMGVYDIAFHQDGSLAGTGGLDAFGRVWDLRTGRCIMFLEGHLKEIYGINFSPNGYHIATGSGDNTCKVWDLRQRRCVYTIPAHQNLVTGVKFEPIHGNFLLTGAYDNTAKIWTHPGWSPLKTLAGHEGKVMGLDISSDGQLIATCSYDRTFKLWMAE
3xMBT/D355N UNC Heavy (3×MBT domain of L3MBTL1): 2.85 log base 2 | 3xMBT/D355N UNC Light (3×MBT domain of L3MBTL1): 2.26 log base 2

Reference: patent publication US20140274782A1, “AFFINITY REAGENTS AND METHODS FOR DETECTION, PURIFICATION, AND PROTEOMIC ANALYSIS OF METHYLATED PROTEINS” (The Board of Trustees of the Leland Stanford Junior …, priority 2013, published 2014)
